The values below come from PMC3069497.

One test addresses T1, Peptide C (bovine).
T1 sequence (peptide): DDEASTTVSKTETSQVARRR

For test [1], the target named is bovine rhodopsin, photoactivated (Rho*) (bovine) (UniProt P02699).
Test [2] has the same target. This is another data set of the same source.

Sequence of UniProt P02699 (P02699 whole entry): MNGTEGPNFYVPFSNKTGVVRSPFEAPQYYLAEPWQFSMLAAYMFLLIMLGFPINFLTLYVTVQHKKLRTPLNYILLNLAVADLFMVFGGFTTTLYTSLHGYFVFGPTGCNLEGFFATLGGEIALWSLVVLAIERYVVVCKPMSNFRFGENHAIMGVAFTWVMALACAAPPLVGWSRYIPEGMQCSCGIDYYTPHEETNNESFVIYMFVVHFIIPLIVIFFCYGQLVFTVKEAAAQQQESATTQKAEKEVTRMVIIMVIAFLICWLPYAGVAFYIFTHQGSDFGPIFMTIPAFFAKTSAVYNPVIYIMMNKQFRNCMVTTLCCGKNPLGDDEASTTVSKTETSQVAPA

B1: bovine GRK1 C-terminally truncated at residue 535 and tagged with hexahistidine (GRK1_(535)H6), wild type (enzyme)
chain: MDFGSLETVVANSAFIAARGSFDASSGPASRDRKYLARLKLPPLSKCEALRESLDLGFEGMCLEQPIGKRLFQQFLRTHEQHGPALQLWKDIEDYDTADDALRPQKAQALRAAYLEPQAQLFCSFLDAETVARARAGAGDGLFQPLLRAVLAHLGQAPFQEFLDSLYFLRFLQWKWLEAQPMGEDWFLDFRVLGRGGFGEVFACQMKATGKLYACKKLNKKRLKKRKGYQGAMVEKKILAKVHSRFIVSLAYAFETKTDLCLVMTIMNGGDIRYHIYNVDEDNPGFQEPRAIFYTAQIVSGLEHLHQRNIIYRDLKPENVLLDDDGNVRISDLGLAVELKAGQTKTKGYAGTPGFMAPELLLGEEYDFSVDYFALGVTLYEMIAARGPFRARGEKVENKELKQRVLEQAVTYPDKFSPASKDFCEALLQKDPEKRLGFRDGSCDGLRTHPLFRDISWRQLEAGMLTPPFVPDSRTVYAKNIQDVGAFSTVKGVAFEKADTEFFQEFASGTCPIPWQEEMIETGVFGDLNVWRPDG
Take B1: in the test with Peptide C (bovine), the KM of peptide C phosphorylation was 320 µM. For the same molecule, in test [1], the KM of ROS (Rho*) phosphorylation was 3.4 µM. The decrease of the magnitude of the fluorescence change of Meta II decay in test [2] was 35%.

B2: GRK1_(535)H6 A11E (enzyme)
chain: MDFGSLETVVENSAFIAARGSFDASSGPASRDRKYLARLKLPPLSKCEALRESLDLGFEGMCLEQPIGKRLFQQFLRTHEQHGPALQLWKDIEDYDTADDALRPQKAQALRAAYLEPQAQLFCSFLDAETVARARAGAGDGLFQPLLRAVLAHLGQAPFQEFLDSLYFLRFLQWKWLEAQPMGEDWFLDFRVLGRGGFGEVFACQMKATGKLYACKKLNKKRLKKRKGYQGAMVEKKILAKVHSRFIVSLAYAFETKTDLCLVMTIMNGGDIRYHIYNVDEDNPGFQEPRAIFYTAQIVSGLEHLHQRNIIYRDLKPENVLLDDDGNVRISDLGLAVELKAGQTKTKGYAGTPGFMAPELLLGEEYDFSVDYFALGVTLYEMIAARGPFRARGEKVENKELKQRVLEQAVTYPDKFSPASKDFCEALLQKDPEKRLGFRDGSCDGLRTHPLFRDISWRQLEAGMLTPPFVPDSRTVYAKNIQDVGAFSTVKGVAFEKADTEFFQEFASGTCPIPWQEEMIETGVFGDLNVWRPDG
B2: the KM of peptide C phosphorylation with Peptide C (bovine) worked out at 310 µM. Also, the KM of ROS (Rho*) phosphorylation in test [1] was found to be 8.8 µM.

B3: GRK1_(535)H6 L6A (enzyme)
chain: MDFGSAETVVANSAFIAARGSFDASSGPASRDRKYLARLKLPPLSKCEALRESLDLGFEGMCLEQPIGKRLFQQFLRTHEQHGPALQLWKDIEDYDTADDALRPQKAQALRAAYLEPQAQLFCSFLDAETVARARAGAGDGLFQPLLRAVLAHLGQAPFQEFLDSLYFLRFLQWKWLEAQPMGEDWFLDFRVLGRGGFGEVFACQMKATGKLYACKKLNKKRLKKRKGYQGAMVEKKILAKVHSRFIVSLAYAFETKTDLCLVMTIMNGGDIRYHIYNVDEDNPGFQEPRAIFYTAQIVSGLEHLHQRNIIYRDLKPENVLLDDDGNVRISDLGLAVELKAGQTKTKGYAGTPGFMAPELLLGEEYDFSVDYFALGVTLYEMIAARGPFRARGEKVENKELKQRVLEQAVTYPDKFSPASKDFCEALLQKDPEKRLGFRDGSCDGLRTHPLFRDISWRQLEAGMLTPPFVPDSRTVYAKNIQDVGAFSTVKGVAFEKADTEFFQEFASGTCPIPWQEEMIETGVFGDLNVWRPDG
For the molecule B3, the KM of peptide C phosphorylation with Peptide C (bovine) stood at 280 µM. For the same molecule, the KM of ROS (Rho*) phosphorylation in test [1] came to 12 µM.

B4: GRK1_(535)H6 A18E (enzyme)
chain: MDFGSLETVVANSAFIAERGSFDASSGPASRDRKYLARLKLPPLSKCEALRESLDLGFEGMCLEQPIGKRLFQQFLRTHEQHGPALQLWKDIEDYDTADDALRPQKAQALRAAYLEPQAQLFCSFLDAETVARARAGAGDGLFQPLLRAVLAHLGQAPFQEFLDSLYFLRFLQWKWLEAQPMGEDWFLDFRVLGRGGFGEVFACQMKATGKLYACKKLNKKRLKKRKGYQGAMVEKKILAKVHSRFIVSLAYAFETKTDLCLVMTIMNGGDIRYHIYNVDEDNPGFQEPRAIFYTAQIVSGLEHLHQRNIIYRDLKPENVLLDDDGNVRISDLGLAVELKAGQTKTKGYAGTPGFMAPELLLGEEYDFSVDYFALGVTLYEMIAARGPFRARGEKVENKELKQRVLEQAVTYPDKFSPASKDFCEALLQKDPEKRLGFRDGSCDGLRTHPLFRDISWRQLEAGMLTPPFVPDSRTVYAKNIQDVGAFSTVKGVAFEKADTEFFQEFASGTCPIPWQEEMIETGVFGDLNVWRPDG
For the molecule B4, the KM of peptide C phosphorylation in the test with Peptide C (bovine) was found to be 410 µM. In test [1], the KM of ROS (Rho*) phosphorylation amounted to 6.1 µM.

B5: GRK1_(535)H6 I16A (enzyme)
chain: MDFGSLETVVANSAFAAARGSFDASSGPASRDRKYLARLKLPPLSKCEALRESLDLGFEGMCLEQPIGKRLFQQFLRTHEQHGPALQLWKDIEDYDTADDALRPQKAQALRAAYLEPQAQLFCSFLDAETVARARAGAGDGLFQPLLRAVLAHLGQAPFQEFLDSLYFLRFLQWKWLEAQPMGEDWFLDFRVLGRGGFGEVFACQMKATGKLYACKKLNKKRLKKRKGYQGAMVEKKILAKVHSRFIVSLAYAFETKTDLCLVMTIMNGGDIRYHIYNVDEDNPGFQEPRAIFYTAQIVSGLEHLHQRNIIYRDLKPENVLLDDDGNVRISDLGLAVELKAGQTKTKGYAGTPGFMAPELLLGEEYDFSVDYFALGVTLYEMIAARGPFRARGEKVENKELKQRVLEQAVTYPDKFSPASKDFCEALLQKDPEKRLGFRDGSCDGLRTHPLFRDISWRQLEAGMLTPPFVPDSRTVYAKNIQDVGAFSTVKGVAFEKADTEFFQEFASGTCPIPWQEEMIETGVFGDLNVWRPDG
As for B5, the KM of peptide C phosphorylation with Peptide C (bovine) turned out to be 220 µM. Also, the KM of ROS (Rho*) phosphorylation in test [1] turned out to be 9.5 µM.

B6: GRK1_(535)H6 V10A (enzyme)
chain: MDFGSLETVAANSAFIAARGSFDASSGPASRDRKYLARLKLPPLSKCEALRESLDLGFEGMCLEQPIGKRLFQQFLRTHEQHGPALQLWKDIEDYDTADDALRPQKAQALRAAYLEPQAQLFCSFLDAETVARARAGAGDGLFQPLLRAVLAHLGQAPFQEFLDSLYFLRFLQWKWLEAQPMGEDWFLDFRVLGRGGFGEVFACQMKATGKLYACKKLNKKRLKKRKGYQGAMVEKKILAKVHSRFIVSLAYAFETKTDLCLVMTIMNGGDIRYHIYNVDEDNPGFQEPRAIFYTAQIVSGLEHLHQRNIIYRDLKPENVLLDDDGNVRISDLGLAVELKAGQTKTKGYAGTPGFMAPELLLGEEYDFSVDYFALGVTLYEMIAARGPFRARGEKVENKELKQRVLEQAVTYPDKFSPASKDFCEALLQKDPEKRLGFRDGSCDGLRTHPLFRDISWRQLEAGMLTPPFVPDSRTVYAKNIQDVGAFSTVKGVAFEKADTEFFQEFASGTCPIPWQEEMIETGVFGDLNVWRPDG
In the case of B6, in the test with Peptide C (bovine), the KM of peptide C phosphorylation is 390 µM. For the same molecule, the KM of ROS (Rho*) phosphorylation in test [1] stood at 21 µM.

B7: GRK1_(535)H6 N12A (enzyme)
chain: MDFGSLETVVAASAFIAARGSFDASSGPASRDRKYLARLKLPPLSKCEALRESLDLGFEGMCLEQPIGKRLFQQFLRTHEQHGPALQLWKDIEDYDTADDALRPQKAQALRAAYLEPQAQLFCSFLDAETVARARAGAGDGLFQPLLRAVLAHLGQAPFQEFLDSLYFLRFLQWKWLEAQPMGEDWFLDFRVLGRGGFGEVFACQMKATGKLYACKKLNKKRLKKRKGYQGAMVEKKILAKVHSRFIVSLAYAFETKTDLCLVMTIMNGGDIRYHIYNVDEDNPGFQEPRAIFYTAQIVSGLEHLHQRNIIYRDLKPENVLLDDDGNVRISDLGLAVELKAGQTKTKGYAGTPGFMAPELLLGEEYDFSVDYFALGVTLYEMIAARGPFRARGEKVENKELKQRVLEQAVTYPDKFSPASKDFCEALLQKDPEKRLGFRDGSCDGLRTHPLFRDISWRQLEAGMLTPPFVPDSRTVYAKNIQDVGAFSTVKGVAFEKADTEFFQEFASGTCPIPWQEEMIETGVFGDLNVWRPDG
Take B7: the KM of peptide C phosphorylation with Peptide C (bovine) stood at 500 µM. Besides, in test [1], the KM of ROS (Rho*) phosphorylation was determined as 20 µM.

B8: GRK1_(535)H6 V9A (enzyme)
chain: MDFGSLETAVANSAFIAARGSFDASSGPASRDRKYLARLKLPPLSKCEALRESLDLGFEGMCLEQPIGKRLFQQFLRTHEQHGPALQLWKDIEDYDTADDALRPQKAQALRAAYLEPQAQLFCSFLDAETVARARAGAGDGLFQPLLRAVLAHLGQAPFQEFLDSLYFLRFLQWKWLEAQPMGEDWFLDFRVLGRGGFGEVFACQMKATGKLYACKKLNKKRLKKRKGYQGAMVEKKILAKVHSRFIVSLAYAFETKTDLCLVMTIMNGGDIRYHIYNVDEDNPGFQEPRAIFYTAQIVSGLEHLHQRNIIYRDLKPENVLLDDDGNVRISDLGLAVELKAGQTKTKGYAGTPGFMAPELLLGEEYDFSVDYFALGVTLYEMIAARGPFRARGEKVENKELKQRVLEQAVTYPDKFSPASKDFCEALLQKDPEKRLGFRDGSCDGLRTHPLFRDISWRQLEAGMLTPPFVPDSRTVYAKNIQDVGAFSTVKGVAFEKADTEFFQEFASGTCPIPWQEEMIETGVFGDLNVWRPDG
As to B8, the KM of peptide C phosphorylation with Peptide C (bovine) was determined as 350 µM. Also, in test [1], the KM of ROS (Rho*) phosphorylation is 18 µM.

B9: GRK1_(535)H6 E7A (enzyme)
chain: MDFGSLATVVANSAFIAARGSFDASSGPASRDRKYLARLKLPPLSKCEALRESLDLGFEGMCLEQPIGKRLFQQFLRTHEQHGPALQLWKDIEDYDTADDALRPQKAQALRAAYLEPQAQLFCSFLDAETVARARAGAGDGLFQPLLRAVLAHLGQAPFQEFLDSLYFLRFLQWKWLEAQPMGEDWFLDFRVLGRGGFGEVFACQMKATGKLYACKKLNKKRLKKRKGYQGAMVEKKILAKVHSRFIVSLAYAFETKTDLCLVMTIMNGGDIRYHIYNVDEDNPGFQEPRAIFYTAQIVSGLEHLHQRNIIYRDLKPENVLLDDDGNVRISDLGLAVELKAGQTKTKGYAGTPGFMAPELLLGEEYDFSVDYFALGVTLYEMIAARGPFRARGEKVENKELKQRVLEQAVTYPDKFSPASKDFCEALLQKDPEKRLGFRDGSCDGLRTHPLFRDISWRQLEAGMLTPPFVPDSRTVYAKNIQDVGAFSTVKGVAFEKADTEFFQEFASGTCPIPWQEEMIETGVFGDLNVWRPDG
With B9, the KM of peptide C phosphorylation with Peptide C (bovine) was found to be 410 µM. Also, the KM of ROS (Rho*) phosphorylation in test [1] stood at 13 µM.

B10: GRK1_(535)H6 F15A (enzyme)
chain: MDFGSLETVVANSAAIAARGSFDASSGPASRDRKYLARLKLPPLSKCEALRESLDLGFEGMCLEQPIGKRLFQQFLRTHEQHGPALQLWKDIEDYDTADDALRPQKAQALRAAYLEPQAQLFCSFLDAETVARARAGAGDGLFQPLLRAVLAHLGQAPFQEFLDSLYFLRFLQWKWLEAQPMGEDWFLDFRVLGRGGFGEVFACQMKATGKLYACKKLNKKRLKKRKGYQGAMVEKKILAKVHSRFIVSLAYAFETKTDLCLVMTIMNGGDIRYHIYNVDEDNPGFQEPRAIFYTAQIVSGLEHLHQRNIIYRDLKPENVLLDDDGNVRISDLGLAVELKAGQTKTKGYAGTPGFMAPELLLGEEYDFSVDYFALGVTLYEMIAARGPFRARGEKVENKELKQRVLEQAVTYPDKFSPASKDFCEALLQKDPEKRLGFRDGSCDGLRTHPLFRDISWRQLEAGMLTPPFVPDSRTVYAKNIQDVGAFSTVKGVAFEKADTEFFQEFASGTCPIPWQEEMIETGVFGDLNVWRPDG
With B10, the KM of peptide C phosphorylation with Peptide C (bovine) stood at 350 µM. For the same molecule, the KM of ROS (Rho*) phosphorylation in test [1] was determined as 11 µM.
